Test results: patent US20240101645A1 (HENRY M JACKSON FOUNDATION FOR THE ADVANCEMENT OF MILITARY …, published 2024)

T1: MERS-CoV spike antigens (bead panel) (MERS-CoV, UniProt K9N5Q8 18-1296)
T1 sequence: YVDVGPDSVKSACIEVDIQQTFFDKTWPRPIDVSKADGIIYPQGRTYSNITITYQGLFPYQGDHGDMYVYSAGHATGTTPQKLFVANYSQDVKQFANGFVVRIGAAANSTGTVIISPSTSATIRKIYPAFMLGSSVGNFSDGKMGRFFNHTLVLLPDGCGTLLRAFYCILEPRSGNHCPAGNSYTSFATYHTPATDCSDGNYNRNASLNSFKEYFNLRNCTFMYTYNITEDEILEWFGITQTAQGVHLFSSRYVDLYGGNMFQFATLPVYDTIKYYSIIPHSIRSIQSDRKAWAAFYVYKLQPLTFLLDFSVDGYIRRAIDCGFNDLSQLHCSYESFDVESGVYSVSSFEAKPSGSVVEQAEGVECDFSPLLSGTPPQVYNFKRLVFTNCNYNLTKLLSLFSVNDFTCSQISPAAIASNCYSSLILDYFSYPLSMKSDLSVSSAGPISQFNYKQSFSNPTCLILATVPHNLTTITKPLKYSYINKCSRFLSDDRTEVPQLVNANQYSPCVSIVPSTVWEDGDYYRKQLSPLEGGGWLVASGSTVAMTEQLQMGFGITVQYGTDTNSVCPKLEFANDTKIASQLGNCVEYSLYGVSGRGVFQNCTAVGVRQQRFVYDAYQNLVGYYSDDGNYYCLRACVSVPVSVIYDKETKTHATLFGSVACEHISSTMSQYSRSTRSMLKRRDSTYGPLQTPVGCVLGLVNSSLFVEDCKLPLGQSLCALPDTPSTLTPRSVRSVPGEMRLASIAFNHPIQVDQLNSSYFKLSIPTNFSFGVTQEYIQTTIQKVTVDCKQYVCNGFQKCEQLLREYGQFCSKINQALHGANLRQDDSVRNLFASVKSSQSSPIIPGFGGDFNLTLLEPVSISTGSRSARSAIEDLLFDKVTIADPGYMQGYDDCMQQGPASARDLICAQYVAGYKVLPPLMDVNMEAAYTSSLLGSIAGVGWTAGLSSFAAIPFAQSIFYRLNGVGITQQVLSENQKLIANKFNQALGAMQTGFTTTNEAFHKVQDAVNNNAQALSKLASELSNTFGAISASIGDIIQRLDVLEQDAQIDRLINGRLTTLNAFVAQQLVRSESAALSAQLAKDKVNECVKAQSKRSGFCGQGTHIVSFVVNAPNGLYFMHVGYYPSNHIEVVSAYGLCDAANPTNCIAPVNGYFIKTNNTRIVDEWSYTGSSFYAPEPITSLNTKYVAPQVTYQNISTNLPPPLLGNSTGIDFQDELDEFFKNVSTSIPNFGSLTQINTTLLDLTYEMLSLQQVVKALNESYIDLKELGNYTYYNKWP

T2: HCoV-229E spike antigens (bead panel) (HCoV-229E, UniProt P15423 16-1115)
T2 sequence: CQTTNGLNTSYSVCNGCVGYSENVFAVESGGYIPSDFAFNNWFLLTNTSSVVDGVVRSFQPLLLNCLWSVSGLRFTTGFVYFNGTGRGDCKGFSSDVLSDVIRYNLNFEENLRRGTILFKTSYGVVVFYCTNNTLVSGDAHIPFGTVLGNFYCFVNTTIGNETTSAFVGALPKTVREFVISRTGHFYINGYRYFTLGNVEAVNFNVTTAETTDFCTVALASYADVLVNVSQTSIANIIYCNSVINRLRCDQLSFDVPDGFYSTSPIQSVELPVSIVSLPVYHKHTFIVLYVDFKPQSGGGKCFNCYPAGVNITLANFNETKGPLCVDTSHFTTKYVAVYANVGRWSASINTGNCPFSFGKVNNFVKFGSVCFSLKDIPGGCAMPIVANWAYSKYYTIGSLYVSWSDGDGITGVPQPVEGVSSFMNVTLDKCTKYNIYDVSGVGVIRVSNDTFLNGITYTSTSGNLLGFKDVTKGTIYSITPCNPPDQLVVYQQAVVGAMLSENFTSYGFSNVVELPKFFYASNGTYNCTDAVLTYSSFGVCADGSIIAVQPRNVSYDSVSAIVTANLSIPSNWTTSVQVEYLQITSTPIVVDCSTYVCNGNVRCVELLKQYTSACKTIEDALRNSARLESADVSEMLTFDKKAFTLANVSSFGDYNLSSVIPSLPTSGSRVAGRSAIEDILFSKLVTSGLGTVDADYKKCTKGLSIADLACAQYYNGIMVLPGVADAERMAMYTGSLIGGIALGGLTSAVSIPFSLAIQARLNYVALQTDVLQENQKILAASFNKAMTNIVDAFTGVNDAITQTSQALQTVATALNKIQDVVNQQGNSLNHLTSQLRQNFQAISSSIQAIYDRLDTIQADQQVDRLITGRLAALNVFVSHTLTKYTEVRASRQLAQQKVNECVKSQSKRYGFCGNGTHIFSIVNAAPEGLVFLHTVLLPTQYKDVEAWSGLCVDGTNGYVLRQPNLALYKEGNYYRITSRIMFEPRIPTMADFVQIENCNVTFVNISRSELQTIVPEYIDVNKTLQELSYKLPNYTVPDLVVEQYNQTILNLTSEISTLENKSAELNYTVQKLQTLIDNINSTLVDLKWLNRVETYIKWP

T3: HCoV-HKU1 spike antigens (bead panel) (HCoV-HKU1, UniProt Q5MQD0 13-1300)
T3 sequence: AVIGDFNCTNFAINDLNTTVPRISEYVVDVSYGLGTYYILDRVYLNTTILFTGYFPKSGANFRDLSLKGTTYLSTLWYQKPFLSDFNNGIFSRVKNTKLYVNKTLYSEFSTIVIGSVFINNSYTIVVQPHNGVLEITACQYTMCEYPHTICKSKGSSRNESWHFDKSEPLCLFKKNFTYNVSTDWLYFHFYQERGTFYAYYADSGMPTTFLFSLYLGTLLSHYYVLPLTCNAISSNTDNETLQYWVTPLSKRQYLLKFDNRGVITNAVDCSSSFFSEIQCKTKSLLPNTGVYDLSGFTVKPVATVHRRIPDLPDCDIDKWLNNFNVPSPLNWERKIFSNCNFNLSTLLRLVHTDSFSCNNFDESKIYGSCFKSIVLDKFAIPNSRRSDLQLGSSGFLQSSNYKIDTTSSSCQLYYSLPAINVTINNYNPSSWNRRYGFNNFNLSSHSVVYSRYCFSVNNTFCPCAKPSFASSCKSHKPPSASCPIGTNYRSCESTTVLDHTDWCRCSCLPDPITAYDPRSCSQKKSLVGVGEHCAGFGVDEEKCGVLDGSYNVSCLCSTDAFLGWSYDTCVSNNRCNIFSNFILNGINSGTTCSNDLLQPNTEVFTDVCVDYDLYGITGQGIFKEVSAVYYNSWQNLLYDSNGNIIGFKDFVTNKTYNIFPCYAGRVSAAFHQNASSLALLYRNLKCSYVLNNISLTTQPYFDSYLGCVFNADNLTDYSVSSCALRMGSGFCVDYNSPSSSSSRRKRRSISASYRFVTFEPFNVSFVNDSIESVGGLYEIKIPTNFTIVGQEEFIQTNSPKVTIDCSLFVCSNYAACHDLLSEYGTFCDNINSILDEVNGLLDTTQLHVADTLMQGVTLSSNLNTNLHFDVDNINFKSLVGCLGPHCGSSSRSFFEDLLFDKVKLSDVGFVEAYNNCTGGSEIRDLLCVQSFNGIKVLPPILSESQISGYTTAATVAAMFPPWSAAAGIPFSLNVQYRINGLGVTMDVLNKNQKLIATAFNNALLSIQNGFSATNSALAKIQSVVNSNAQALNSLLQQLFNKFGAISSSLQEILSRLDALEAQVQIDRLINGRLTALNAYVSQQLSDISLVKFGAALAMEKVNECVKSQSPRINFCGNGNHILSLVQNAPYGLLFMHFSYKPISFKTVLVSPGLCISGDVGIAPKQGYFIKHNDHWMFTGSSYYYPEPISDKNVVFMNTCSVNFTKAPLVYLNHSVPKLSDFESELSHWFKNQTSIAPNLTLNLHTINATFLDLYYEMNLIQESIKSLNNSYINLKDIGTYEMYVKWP

T4: HCoV-OC43 spike antigens (bead panel) (HCoV-OC43, UniProt P36334 14-1297)
T4 sequence: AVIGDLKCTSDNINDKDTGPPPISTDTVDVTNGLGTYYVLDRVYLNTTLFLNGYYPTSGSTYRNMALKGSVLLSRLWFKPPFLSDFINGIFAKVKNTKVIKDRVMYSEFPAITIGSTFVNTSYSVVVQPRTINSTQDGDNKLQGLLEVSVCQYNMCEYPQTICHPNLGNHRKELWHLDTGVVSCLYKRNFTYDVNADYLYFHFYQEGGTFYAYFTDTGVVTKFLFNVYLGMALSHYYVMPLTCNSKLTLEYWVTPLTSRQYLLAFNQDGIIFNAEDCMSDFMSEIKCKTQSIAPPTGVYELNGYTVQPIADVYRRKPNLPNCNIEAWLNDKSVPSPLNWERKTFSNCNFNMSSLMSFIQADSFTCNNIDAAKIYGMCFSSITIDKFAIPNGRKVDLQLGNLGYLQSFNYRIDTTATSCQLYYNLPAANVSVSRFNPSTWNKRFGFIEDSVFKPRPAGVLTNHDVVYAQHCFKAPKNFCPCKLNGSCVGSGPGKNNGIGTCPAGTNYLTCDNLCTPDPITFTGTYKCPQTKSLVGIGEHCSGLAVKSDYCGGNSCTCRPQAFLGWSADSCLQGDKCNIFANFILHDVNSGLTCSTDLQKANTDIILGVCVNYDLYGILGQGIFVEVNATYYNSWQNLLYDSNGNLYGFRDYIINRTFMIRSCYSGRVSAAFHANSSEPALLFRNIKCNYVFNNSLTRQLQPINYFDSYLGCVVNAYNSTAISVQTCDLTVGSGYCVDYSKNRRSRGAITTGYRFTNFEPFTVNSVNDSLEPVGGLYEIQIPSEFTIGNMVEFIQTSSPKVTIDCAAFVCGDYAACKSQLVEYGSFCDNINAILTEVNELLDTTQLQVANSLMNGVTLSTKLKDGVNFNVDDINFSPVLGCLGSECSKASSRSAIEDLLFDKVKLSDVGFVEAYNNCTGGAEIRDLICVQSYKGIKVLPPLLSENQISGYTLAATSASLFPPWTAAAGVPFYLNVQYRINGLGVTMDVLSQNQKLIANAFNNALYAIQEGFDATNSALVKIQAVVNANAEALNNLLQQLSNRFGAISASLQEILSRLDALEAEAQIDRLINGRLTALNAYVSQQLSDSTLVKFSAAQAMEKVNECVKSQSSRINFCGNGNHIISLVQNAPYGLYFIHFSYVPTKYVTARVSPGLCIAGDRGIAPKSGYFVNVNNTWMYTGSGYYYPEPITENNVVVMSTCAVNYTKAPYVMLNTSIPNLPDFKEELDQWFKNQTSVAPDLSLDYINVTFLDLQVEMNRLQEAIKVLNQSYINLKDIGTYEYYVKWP

B1: COV_3103 (antibody, V domains shown)
VH: EVQLVESGGGLVQPGRSLRLSCVASGFIVENFAMHWVRQAPGKGLEWVSGITWNSASTGYVESVKGRFSISRDNGENSMFLEMNSLRPDDTALYYCVKATGSYWGFPMDVWGQGTTVTVSS
VL: EIVLTQSPGTLSLSPGEGGTLSCRASQSVRSNYLAWYQRKPGQAPRLLIYATSNRATGIPDRFSGSGSGTDFTLTISRLEPEDFAVYFCQHYGDSPYTFGQGTKLEIKR
notes: human IgG1
B2: COV_2173 (antibody, V domains shown)
VH: QVQLQESGPGLVKPSETLSLTCSVSGDSISSSDYSWGWIRQPPGKGLEWIGTIYYIKNTYYNPSLRSRVTLSVDTSKNLFSLKLSSVTAADTAVYYCARERPPFDVVVVPAARPYNWFDPWGLGTLVIVSS
VL: QSVLMQPPSVSGAPGQRVTISCTGSSSNIGAGYDVHWYQQLPGTAPKLLIYGNNNRPSGVPDRFSGSKSGTSASLAITGLQADDEADYYCQSYDSSLSGSKVFGGGTKLTVL
notes: human IgG1
B3: COV_2165 (antibody, V domains shown)
VH: EVQLVESGGGLVQPGGSLRLSCAASGFTFSSYSMNWVRQAPGKGLEWVSYISSSSSTIYYADYVKGRFTISRDNAKNSLYLQMNSLRAEDRAVYYCARVARRDVAPATIAAYFLDYWGQGTLVTVSS
VL: EIVLTQSPATLSLSPGERATLSCRASQSLSSYLAWYQQKPGQAPRLLIYDASTRATGIPARFSGSGSGTDFTLTISSLEPEDFAVYYCQQRSTWPRGFTFGPGTKVDIK
notes: human IgG1

Columns and labels:
[1] = target: T1, MERS-CoV spike antigens (bead panel); assay: multiplex bead assay
[2] = target: SARS-CoV-1 spike antigens (bead panel) (SARS-CoV-1, UniProt P59594 14-1195); assay: multiplex bead assay
[3] = target: T2, HCoV-229E spike antigens (bead panel); assay: multiplex bead assay
[4] = target: T3, HCoV-HKU1 spike antigens (bead panel); assay: multiplex bead assay
[5] = target: T5, SARS-CoV-2 S on pseudovirions (Wuhan Hu-1 / IL1/2020, last 18 amino acids removed) (SARS-CoV-2, UniProt P0DTC2 14-1273); assay: cell-based or functional assay
[6] = target: T4, HCoV-OC43 spike antigens (bead panel); assay: multiplex bead assay
[7] = target: T5, SARS-CoV-2 S on pseudovirions (Wuhan …); assay: cell-based or functional assay; remark: listed apart in the source

Binder | binding result [1] | binding result [2] | binding result [3] | binding result [4] | IC50, pseudotyped neutralization assay [5] [ng/mL] | binding result [6] | Mean IC80, pSV neutralization [7] [µg/ml] | Mean IC50, pSV neutralization [7] [µg/ml]
B1 | no binding | no binding | no binding | no binding | – | – | – | –
B2 | – | – | – | – | 4 | no binding | 0.01 | –
B3 | – | no binding | – | – | 10 | no binding | 0.04 | 0.02
